The target in one test is CD19 (UniProt P15391). Briefly: cell-based or functional assay.
For a further test, the target named is CD20 (UniProt P11836). Put plainly: cell-based or functional assay.

We go through one substance from patent publication US20240165153A1.

UniProt P11836, sequence (P11836 whole entry): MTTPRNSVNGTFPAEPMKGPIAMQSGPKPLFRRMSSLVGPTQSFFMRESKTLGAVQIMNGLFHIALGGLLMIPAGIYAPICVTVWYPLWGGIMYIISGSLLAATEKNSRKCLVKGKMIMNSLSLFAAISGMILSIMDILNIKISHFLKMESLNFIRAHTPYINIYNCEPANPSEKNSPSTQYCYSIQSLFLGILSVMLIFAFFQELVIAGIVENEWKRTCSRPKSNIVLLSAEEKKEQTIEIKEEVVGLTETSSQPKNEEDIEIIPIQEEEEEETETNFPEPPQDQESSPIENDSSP
UniProt P15391, sequence (P15391 20-556 limits assumed): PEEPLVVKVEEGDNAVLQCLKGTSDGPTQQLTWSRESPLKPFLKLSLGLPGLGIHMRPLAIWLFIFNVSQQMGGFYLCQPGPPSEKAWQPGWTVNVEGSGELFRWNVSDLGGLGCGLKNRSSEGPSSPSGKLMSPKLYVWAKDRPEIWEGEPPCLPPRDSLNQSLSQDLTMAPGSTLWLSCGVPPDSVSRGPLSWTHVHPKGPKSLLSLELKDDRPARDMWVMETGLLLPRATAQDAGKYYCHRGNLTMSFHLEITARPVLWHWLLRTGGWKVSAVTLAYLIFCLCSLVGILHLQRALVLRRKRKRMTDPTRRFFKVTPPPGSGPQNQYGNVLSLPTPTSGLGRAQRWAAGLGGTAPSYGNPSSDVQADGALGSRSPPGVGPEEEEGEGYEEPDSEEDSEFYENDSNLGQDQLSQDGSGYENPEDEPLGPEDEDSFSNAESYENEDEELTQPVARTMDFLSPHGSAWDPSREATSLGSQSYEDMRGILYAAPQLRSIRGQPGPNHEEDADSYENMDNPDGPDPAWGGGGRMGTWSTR

In the test with CD19, “10-5-2020 Hu19-CD828Z (anti-CD19 chimeric antigen receptor)” showed a CFSE median fluorescence intensity (lower = more proliferation), FIG. 9B, CD4+ T cells with Hu1928-Hu20BB long 10-21-2020, 4 days with CD19-K562 (NGFR-K562 control 28478) (relative fluorescence units) of 1410; a CFSE median fluorescence intensity (lower = more proliferation), FIG. 10B, CD8+ T cells with Hu1928-Hu20BB long 10-21-2020, 4 days with CD19-K562 (NGFR-K562 control 24978) (relative fluorescence units) of 1770; an IFNγ ELISA of supernatant; T cells transduced with Hu1928-Hu20BB long 10-21-2020, overnight with CD19-K562 of 8210 pg/mL; an IFNγ release; T cells transduced with Hu1928-Hu20BB long 10-21-2020, with CD19-K562 of 37500. In the test with CD19, the IFNγ release; T cells transduced with monospecific 10-5-2020 Hu19-CD828Z, with CD19-K562 (untransduced T cells: 217.2) amounted to 22000; the IFNγ release; T cells transduced with monospecific 10-5-2020 Hu19-CD828Z, with ST486, which expresses CD19 (weakly) and CD20 (untransduced T cells: 1674.8) was determined as 2070; the IFNγ release; T cells transduced with monospecific 10-5-2020 Hu19-CD828Z, with Toledo, which expresses CD19 and CD20 (untransduced T cells: 542.3) amounted to 3200; the IL-2 ELISA of supernatant; T cells transduced with Hu1928-Hu20BB long 10-21-2020, overnight with CD19-K562 was 496 pg/mL. In addition, in the test with CD20, the IFNγ release; T cells transduced with monospecific 10-5-2020 Hu19-CD828Z, with CD19-negative CD20-K562 (untransduced T cells: 201.3) is 291; the IFNγ release; T cells transduced with monospecific 10-5-2020 Hu19-CD828Z, with ST486 CD19-negative (untransduced T cells: 1464.3) was 1360; the IFNγ release; T cells transduced with monospecific 10-5-2020 Hu19-CD828Z, with Toledo CD19-negative (untransduced T cells: 372.7) was determined as 702.
